Assay results published in patent US20030096355A1 (published 2003).

Experiments:
[1] = molecular target: T1, murine TNFα (amino acids 82-233, Genbank accession no. CAA68530) (murine, UniProt P06804 82-233); experiment: SPR, Biacore 2000, 25° C; ymkz5-receptor immobilized on CM5 chip, ligand injected
T1 construct: range 82-233; Expressed in E. coli
T1 sequence (looked up): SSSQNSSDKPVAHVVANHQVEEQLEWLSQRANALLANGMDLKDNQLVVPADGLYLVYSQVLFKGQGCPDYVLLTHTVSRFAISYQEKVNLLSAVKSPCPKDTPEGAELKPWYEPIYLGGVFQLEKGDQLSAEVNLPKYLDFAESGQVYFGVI
Experimental: (§1) Binding studies were performed to determine if various TNF ligand family members are ligands for the ymkz5-receptor. The only TNF ligand which bound to the ymkz5-receptor was murine TRAIL. The binding studies, based on surface plasmon resonance, were carried out with the automated, high throughput Biacore 2000 system at 25° C. according to the manufacturer's instructions (Biacore, Uppsula, Sweden) as follows:
(§2) The receptor was immobilized on a CM5 research grade amine coupling chip (Biacore) by placing 40 μg/ml of recombinant ymkz5-receptor diluted in HEPES buffered saline (HBS-P; Biacore) at pH 4.5 on the chip. The ligands were diluted in HSP-B buffer containing 10 μg/ml BSA and 4 mg/ml dextran to block nonspecific binding sites. The ligand samples were injected over the receptors at concentrations ranging from 2 nM to 100 nM. The chips were regenerated between ligand injections by washing 2 times for 3 minutes in 25 mM CAPS, 1 M NaCl pH 10.5.
(§3) The TNF ligands tested were: human flag TRAIL (amino acids 95-281, Genbank accession no. AAC50332), murine flag TRAIL (amino acids 99-291, Genbank accession no. NP 033451), murine Fc TRAIL, human OPGL ligand (amino acids 159-318), murine OPGL ligand (amino acids 159-316), human TNFα (amino acids 82-233, Genbank accession no. CAA26669), and murine TNFα (amino acids 82-233, Genbank accession no. CAA68530). The extracellular and […] portions of the ligands were recombinantly expressed in E.coli. Specifically, the denoted amino acids for each ligand indicate the portion of the ligand expressed recombinantly. Additionally, commercially available human Fas ligand (Alexis Biochemicals, San Diego, Calif.) was also tested.. Human DR5Fc, a known TRAIL receptor, was used as a control. Results of the assay were determined by detecting the change in mass on the chip as measured by changes in […] on the chip as indicated as resonance units.

[2] = molecular target: T2, human Fas ligand (Alexis Biochemicals) (human, UniProt P48023 103-281, limits assumed); experiment: as above
T2 construct: Bought; construct not described
T2 sequence (looked up): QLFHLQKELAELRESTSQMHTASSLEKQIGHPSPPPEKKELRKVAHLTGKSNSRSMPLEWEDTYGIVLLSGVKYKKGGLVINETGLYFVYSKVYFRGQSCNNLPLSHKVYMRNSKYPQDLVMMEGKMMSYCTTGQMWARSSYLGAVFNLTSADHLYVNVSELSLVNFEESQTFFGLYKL
Experimental: as §1, §2, §3

[3] = molecular target: T3, human flag TRAIL (amino acids 95-281, Genbank accession no. AAC50332) (human, UniProt P50591 95-281); experiment: as above
T3 construct: range 95-281; Expressed in E. coli; not shown: flag tag
Experimental: as §1, §2, §3

[4] = molecular target: T4, human OPGL ligand (amino acids 159-318) (human, UniProt O14788 159-317); experiment: as above
T4 construct: range 159-318; Expressed in E. coli; The printed range may run past the end of the UniProt entry
T4 sequence (looked up): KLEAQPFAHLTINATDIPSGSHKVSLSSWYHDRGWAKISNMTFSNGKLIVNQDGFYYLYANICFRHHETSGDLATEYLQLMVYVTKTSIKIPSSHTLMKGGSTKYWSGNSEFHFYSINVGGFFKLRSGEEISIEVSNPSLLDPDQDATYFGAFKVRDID
Experimental: as §1, §2, §3

[5] = molecular target: T5, murine OPGL ligand (amino acids 159-316) (murine, UniProt O35235 159-316); experiment: as above
T5 construct: range 159-316; Expressed in E. coli
T5 sequence (looked up): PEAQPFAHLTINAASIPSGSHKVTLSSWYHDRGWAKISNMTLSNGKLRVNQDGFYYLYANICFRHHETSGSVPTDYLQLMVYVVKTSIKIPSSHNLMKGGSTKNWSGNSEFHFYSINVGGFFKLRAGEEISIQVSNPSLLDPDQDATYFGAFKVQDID
Experimental: as §1, §2, §3

[6] = molecular target: T6, human TNFα (amino acids 82-233, Genbank accession no. CAA26669) (human, UniProt P01375 82-233); experiment: as above
T6 construct: range 82-233; Expressed in E. coli
Experimental: as §1, §2, §3

[7] = molecular target: T7, active murine TRAIL (murine, UniProt P50592 99-291); experiment: SPR, Biacore 2000, 25° C; ymkz5-receptor amine-coupled on CM5 chip, ligand injected at 2 nM to 100 nM; receptor on the chip; active (bioactive) murine TRAIL as ligand
T7 construct: The result is told only for 'active murine TRAIL which was bioactive in cell culture assays'; The construct (flag-tagged 99-291 or Fc fusion) is not tied to the KD; also called murine flag TRAIL; murine Fc TRAIL
T7 sequence (looked up): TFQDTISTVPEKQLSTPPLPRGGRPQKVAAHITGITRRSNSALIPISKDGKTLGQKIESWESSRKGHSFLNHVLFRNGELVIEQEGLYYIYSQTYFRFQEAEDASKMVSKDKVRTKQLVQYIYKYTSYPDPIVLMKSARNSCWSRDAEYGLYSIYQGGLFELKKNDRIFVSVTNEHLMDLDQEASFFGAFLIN
Experimental: as §1
The receptor was immobilized on a CM5 research grade amine coupling chip (Biacore) by placing 40 μg/ml of recombinant ymkz5-receptor diluted in HEPES buffered saline (HBS-P; Biacore) at pH 4.5 on the chip. The ligands were diluted in HSP-B buffer containing 10 μg/ml BSA and 4 mg/ml dextran to block nonspecific binding sites. […]
The TNF ligands tested were: human flag TRAIL (amino acids 95-281, Genbank accession no. AAC50332), murine flag TRAIL (amino acids 99-291, Genbank accession no. NP 033451), murine Fc TRAIL, human OPGL ligand (amino acids 159-318), murine OPGL ligand (amino acids 159-316), human TNFα (amino acids 82-233, Genbank accession no. CAA26669), and murine TNFα (amino acids 82-233, Genbank accession no. CAA68530). […] Results of the assay were determined by detecting the change in mass on the chip as measured by changes in […] on the chip as indicated as resonance units.

T6 sequence (P01375 82-233 limits assumed): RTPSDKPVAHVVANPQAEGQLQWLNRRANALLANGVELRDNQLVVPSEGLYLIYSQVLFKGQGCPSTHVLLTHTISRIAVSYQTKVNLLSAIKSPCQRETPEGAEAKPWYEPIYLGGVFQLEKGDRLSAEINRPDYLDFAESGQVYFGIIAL
T3 sequence (P50591 95-281 limits assumed): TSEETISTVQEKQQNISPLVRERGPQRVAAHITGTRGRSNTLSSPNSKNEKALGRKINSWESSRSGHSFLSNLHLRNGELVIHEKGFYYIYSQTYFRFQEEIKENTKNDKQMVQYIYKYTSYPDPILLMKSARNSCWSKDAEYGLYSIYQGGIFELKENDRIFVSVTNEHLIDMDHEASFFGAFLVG

binding result [1]: no binding | binding result [2]: no binding | binding result [3]: no binding | binding result [4]: no binding | binding result [5]: no binding | binding result [6]: no binding | Kd [7]: 0.0208 µM
B1: recombinant ymkz5-receptor (receptor)
chain: MPESYSFNCPDGEYQSNDVCCKTCPSGTFVKAPCKIPHTQGQCEKCHPGTFTGKDNGLHDCELCSTCDKDQNMVADCSATSDRKCECQIGLYYYDPKFPESCRPCTKCPQGIPVLQECNSTANTVC
